Results on one protein are retold here after paper PMC9675693, “Production and characterisation of modularly deuterated UBE2D1–Ub conjugate by small angle neutron and X-ray scattering” (European Biophysics Journal, 2022).

This data set concerns the molecule itself. Description: SDS-PAGE; purified hE2 on an SDS-PAGE gel; additional band of ~25 kDa.

B1: human Ubiquitin-conjugating enzyme UBE2D1 with point mutations S22R, C85K and D87S, hydrogenated (enzyme)
chain: not shown
notes: Ubiquitin-conjugating enzyme UBE2D1, human, with S22R, C85K and D87S; In the SAS experiment (a1) K85 of this chain is joined by an isopeptide bond to G76 of dUb; also called hE2; not shown: His6, N-terminal, cleaved
With B1, the binding result is reported as “binds”.
